Reference: US20130004493

Target: T1, Epithelial membrane protein 2 (EMP2), human, P54851
T1 chain: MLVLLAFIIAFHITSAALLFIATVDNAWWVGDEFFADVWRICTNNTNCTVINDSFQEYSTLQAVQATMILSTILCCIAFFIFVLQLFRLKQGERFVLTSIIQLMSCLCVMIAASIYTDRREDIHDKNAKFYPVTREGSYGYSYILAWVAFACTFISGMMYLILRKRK

B1: Focal adhesion kinase (FAK), human (protein)
chain: AAAYLDPNLNHTPNSSTKTHLGTGMERSPGAMERVLKVFHYFESNSEPTTWASIIRHGDATDVRGIIQKIVDSHKVKHVACYGFRLSHLRSEEVHWLHVDMGVSSVREKYELAHPPEEWKYELRIRYLPKGFLNQFTEDKPTLNFFYQQVKSDYMLEIADQVDQEIALKLGCLEIRRSYWEMRGNALEKKSNYEVLEKDVGLKRFFPKSLLDSVKAKTLRKLIQQTFRQFANLNREESILKFFEILSPVYRFDKECFKCALGSSWIISVELAIGPEEGISYLTDKGCNPTHLADFTQVQTIQYSNSEDKDRKGMLQLKIAGAPEPLTVTAPSLTIAENMADLIDGYCRLVNGTSQSFIIRPQKEGERALPSIPKLANSEKQGMRTHAVSVSETDDYAEIIDEEDTYTMPSTRDYEIQRERIELGRCIGEGQFGDVHQGIYMSPENPALAVAIKTCKNCTSDSVREKFLQEALTMRQFDHPHIVKLIGVITENPVWIIMELCTLGELRSFLQVRKYSLDLASLILYAYQLSTALAYLESKRFVHRDIAARNVLVSSNDCVKLGDFGLSRYMEDSTYYKASKGKLPIKWMAPESINFRRFTSASDVWMFGVCMWEILMHGVKPFQGVKNNDVIGRIENGERLPMPPNCPPTLYSLMTKCWAYDPSRRPRFTELKAQLSTILEEEKAQQEERMRMESRRQATVSWDSGGSDEAPPKPSRPGYPSPRSSEGFYPSPQHMVQTNHYQVSGYPGSHGITAMAGSIYPGQASLLDQTDSWNHRPQEIAMWQPNVEDSTVLDLRGIGQVLPTHLMEERLIRQQQEMEEDQRWLEKEERFLKPDVRLSRGSIDREDGSLQGPIGNQHIYQPVGKPDPAAPPKKPPRPGAPGHLGSLASLSSPADSYNEGVKLQPQEISPPPTANLDRSNDKVYENVTGLVKAVIEMSSKIQPAPPEEYVPMVKEVGLALRTLLATVDETIPLLPASTHREIEMAQKLLNSDLGELINKMKLAQQYVMTSLQQEYKKQMLTAAHALAVDAKNLLDVIDQARLKMLGQTRPH
In the case of B1, the “phosphorylation of FAK at Tyr-397, Tyr-407, Tyr-861 and Tyr-925 (quantitative Western blot, ARPE-19/EMP2 against ARPE-19)” value is reported as “EMP2 overexpression enhanced phosphorylation of FAK two- to three-fold at Tyr-397, Tyr-407, Tyr-861, and Tyr-925”.
